Source: the DeepSol protein solubility set

assay: soluble on expression in E. coli; label from the status in PepcDB or PDB records

| Sequence | soluble on expression in E. coli |
| --- | --- |
| MGSDKIHHHHHHMGLRILQVMAGAEQGGAELFFERLCIALHRAGLHQHVVMREASVRLARMREAGLRPVLLPFGGRFDFKTGRALRQEIARFQPAVVLSWMNRATRFVRPGNHVFCARLGGYYDLKYYRGCDWLVCNTEDIRDYVIKQGFPAERAVHLPNFVPQQHMAPTARKLLYTPENAPLVLALGRLHENKAFDVLLRALALVPDVYLWLAGEGPLRASLETLAQDLGVKPRVRFLGWRDDTPALYAAADLVVFPSRHEPLGNVVLEAWAQRTPMVSTRTDGPARLITSGHNGLLVPIDDHRAMAGAIRQAFGEPGLGEAMARAGWDSYLAAYTEEKVVASYRSFFETIVAERSGAVDRG | not soluble |
| MGSDKIHHHHHHMGNVIVVTSGKGGVGKTTITANLGCALAKLGEKVCLIDADIGLKNLDIVLGLENRIVYTMIDVVNGKVSPQEALVKHKMLKNLYLLPASQIATKEMISPNDMKAIVKELIPHFDYIIIDSPAGIERGFRNAVAPAERVLVVTTPELPAISDADRVIGLLENFGFSDEKINVIINRFKPHMVKKGEMLTTDDIKHTLSLEIIAVIPDSEDIIVASNTGIPVSLNGNSRISKNFENLARRIRGEGVPLENDFVTVSKGLIDTLKDFFSKLKRG | not soluble |
| MGSDKIHHHHHHMGTAKGNITNWTQYNQVLTQRGSLTFWMDDAAIKHWYNQHPSGRQGRSNTYSDSAISTALMIKGVFKLPLRALYGFINSLFRLMDVDLKSPDYSCISKRAKTVEVNYRLRSKGPARHILIDATGLKVFGEGEWKIRKHGKEKRRIWRKMHLAVDADTREIVSAVASLDNVHNSEVIPTLINPLRCKIKQVSADGAYDTKHCYAVLQRKGITAIIPSRKNAGYRRGEQPRNEAVDALKERSVSLVEA | not soluble |
| MGSDKIHHHHHHMGTFFVDFYNEYPDTSYIKIPTNPLDRVIGQDDAVKIAMVAAKQRRHLLLVGPPGVGKSMIAQAMSFYIDRPTEEIRVVHNPQYPERPFVEIKTREEVMAEREEETSTSGIIIDPKDAPTSVAERLGYRCSKCGFYSSPSDAVCPNCNSPKIQMGTQGPFGDVFNVIGAAFGVQNNLDKVTLTRRNGDHDEIIVYERYNDKIRVLDEKTLERRRRLEKKSPSKTIVPIDRNPFVLATGASETELLGDVRHDPYGGHPQLGTLPYERVIAGAVHEAHQGVLFIDEITHLGNLQRYILTAMQEKTFPITGRNPQSAGASVRVDKVPADFILVAACNINDLPYILSPLRSRIVGNGYEILMKTTMKDTDENRMKYLQFISQEITMDGKIPHMTMEAAELIIEEGKKRARIIDKKNNELTLRLRELGGLIRAAGDIAVFKGNKLIEKEDVEEAIKLYVPVEEKITKEYGSMAAAYSSENTTSQKDFYNYNLDDRSYE | not soluble |
| MGSDKIHHHHHHMGVTCVSQMPVAEGKSVQQTVELLTRKLEMLGAEKQGTFCVDCETYHTAASTLGSQGQTGKLMYVMHNSEYPLSCFALFENGPCLIADTNFDVLMVKLKGFFQSAKASKIETRGTRYQYCDFLVKVGTVTMGPSARGISVEVEYGPCVVASDCWSLLLEFLQSFLGSHTPGAPAVFGNRHDAVYGPADTMVQYMELFNKIRKQQQVPVAGIR | not soluble |
| MGSDKIHHHHHHMGYVAVRGGSEAISRAEELVTCLRLLGGSTPLQLPQIRDQLRHAVSRAMHEGALYAPLLAALALKQAEGDSIEAAFLLRAYRTTLPRVMASLPASGRDISCLRRISASFKDIPGGQILGPASDYLIRLLQPDLAHETIVDVARAAEQYAALVEKGGIRSGEWGRFPKVADYMRQEQMIVDIPADSEETEPFDITREPLVFPCPRSARLQALMQADTGSLMCLAYSSVRGYGDAHPALVELRYGYLAIQVAHPLTGEPITIGEIEVTETEVASKAHSVTSRTGTPRFNVGYGFAFGQSELKTMSMAILDSVLTQARAGSLAGESGPAADEEFVLLHTDGIEASGFVAHFKLPHYVTFAADLSVLDRARDHHAQQQSRLHQLVDQALTE | not soluble |
| MGSDKIHHHHHHMHAIGFTDHLPIEDPASLRDVTISKPSAQGHDLLVQVQAVAVNPVDVSVRKTGHEHRMRPKILGWDATGIVTAVGEAVTLFQPGDHVFYAGSFRRPGCDSAYHLVDERLVGHAPATLTTAARAAMPLTSLTAYEALFEQLHIPFDPAKPNSEKCNQTILIINGAGGVGSIATQLAKLAGLTVISSASRPESIAWTQQHGADLVVNHHHDLVSEVHALGIKDVDYILGLSDLDSHWNEICTLIKPGGHIASITENRRPIDLKKLTKKRGTFAWEWMYSKSYYHTADMISQHDILETIADLLDRGLLQSTLSQTLRPINALNLRQAHQLIEQHHMIGKVVIEGWE | not soluble |
| MGSDKIHHHHHHMHFIMMKLFRVVKRGYYISYAILDNSTIIRLDEDPIKALMRYSENKEVLGDRVTGIDYQSLLKSFQINDIRITKPIDPPEVWGSGISYEMARERYSEENVAKILGKTIYEKVYDAVRPEIFFKATPNRCVGHGEAIAVRSDSEWTLPEPELAVVLDSNGKILGYTIMDDVSARDLEAENPLYLPQSKIYAGCCAFGPVIVTSDEIKNPYSLDITLKIVREGRVFFEGSVNTNKMRRKIEEQIQYLIRDNPIPDGTILTTGTAIVPGRDKGLKDEDIVEITISNIGTLITPVKKRRKIT | not soluble |
| MGSDKIHHHHHHMHKFNPDRIQIGISACLLGEQVRFDGGHKNSAYCQQELKPHFDFVPVCPEMAIGLGAPRKSIRQVRIEGEIRVRSADGSIDVTEQLQSFCNNKADGLGFLGGYLFCSKSPTCGMERVPVYKADGSGGFKEGVGVFAAALMKRFPHLPVEEEGRLHDLVIRENFFTRVYAYHDWHCMRLKGLTRKALTDFHARYKYLLLSHSPAIYRTLGPLLAGDGELEAVADSYFDGFMTALRHKASRRNHTSALQHIQGYFKKFLSGSQKAELSDAILAYRQGVQPLLVPITLIRHYLREHPNDYIAAQVYLNPHPDSLRLRYAY | not soluble |
| MGSDKIHHHHHHMHLSNSPNSHDPDAQARFWFARQQGQTLSEAEQQQLAEWLAANPLHQDAWRRVEEDWLAIDRYRHALNDELKKARRNRPGQHKAAFQLKRRAAAAALLVAVCIPVLYQGMTGTTTYWNTLKGEQQQITLAGGSTLNLDTATRITVTQNWFTHHVQLHEGEIYLETASSDWHTLRVSAEHYEIRDIGTRFSVRYIPDQFMVEVAEGTVEVKKQGQLVLLQAGEVLSIITGSNEWRLAALPAGDIAHWRKGLLVFNAHRLHDVLHEIARYHTVQFDLADSAIGEIQVSGRFKLDELDTNLQIIADTLKINIEHPAPGRYRLGALRQSTR | not soluble |
| MGSDKIHHHHHHMHQTILHAFSQHAASCYPNECCGLLIRQGNKAQYVKCENKATNKADEFVIDPQQYADIEELGAIIGICHSHPDASSKPSDRDRAMCEASGLPWHILSWPDGDLRTIVPTGERKSLLNRPFVHGVWDCYSCVRDWYSEVQQIHLPDFARQDGWWEGEQELYLDNFAKAGFVALPNINLADLQIGDVFLMQIQSQRVNHAAVYVGEGKILHHLYGRLSRYDIYGGYWQRNTRLIVRHCQ | not soluble |
| MGSDKIHHHHHHMHSKTFGDVSIDEMVSRIKEFILKDNNCNYKITIGTDSQNKNLTKVVVVVAIHRIGSGGIFFYDIKHVHKISNVRQKIYYETALSLELASKVSHAFAEANIQEDIEIHADIGSNRKGKTYPLINEITGWITGEGYKYQIKPYSYAASCIADKISK | not soluble |
| MGSDKIHHHHHHMHTDINALFAALWQDYIQMTPSAAKVHALLGHGKPIINDHIALRTFNIAKVNLDVLAKHFTSLGYVACGDYKFEQKKLVAKHFEHPDSTQPKVFISELLVEEFSPALQATIQGLIAQVDVAATTADNFIYSGRHWSLDSQTYEDLLAESEYAAWVAAFGYRANHFTVSINHLDGFDTLESVNNALKQAGFVLNSSGGEIKGSPEVLLEQSSTMADKIGVEFTNATVEIPSCFYEFALRYPMANGELYTGFVAASADKIFESTNVNKA | not soluble |
| MGSDKIHHHHHHMHVDIELPLGRATALQRLRAQGFCVLTPAALETLTGMPLDAFDMMLPYWEELAPDLHLKDGGHYRYRRHGCFMQTLQPGQLETVQHRAHWQPTTYNALHGGMERWFEPLSNEMIHLPSWSALLVALGELFAKLRAPQGGRWYIEAHPFRIDTEGGVGRPTPEGAHRDGVDFVAVVFIGRQGVRGGETRVFDAAGPQGVRFTLEQPWTVLLLDDQQVIHESTPLLPLDPADPAVPAHRDTLVLTYRSGGFQAPA | not soluble |
| MGSDKIHHHHHHMHYLPFIRVVMNTADEDAQMERDEWASREVMPITNWGRRPDGSEIVQYDAPMFFSFTEHSLLHQYPHMRAECHWHVDLELTYIIHGHMWYFVNGETVRLDEGQAIFVNSRQLHYGFTKDGSDCEFSCTLLNPAKMCASFEVYDRFIAPLMAENTMPYAVITDDTAPGRRLLATIRQLHAAKFGPLERSERSAEPLPADDMTLTDNTEALTVLSCFYAVVRDILAIAGSHCATSTAPHPRIVTLRKMIDYVQRYYVRPITLKQIASAGSVGRTTCASIFRESLNQSPIEFVNDVRVRAAANLLVTSSLPIATVAKQTGFSSASFFSRTFHRFMGVTPITYRTTHTKRKSEE | not soluble |
| MGSDKIHHHHHHMIALKELKQYADLHVKTHSFQVINPRQVLQSIERAASEEPTAGGWDWQWVDAANKCLQANAIEDAIQCYNFARFPFPKTSLQQEAADRLTKVFEQAYCREDVQKHRVYYDNQKVTVYAANLHPDLPCLLVLGGIVSIKEQWSVFLQVGKRLGFSVLITECPGVGENQVRYHADSYRMIGQILDTFAGQAKVGDTYIVGMSFGGHLAMKQALHDERIKGITTVGAPLHYFFQDYSQLNVPFITQATLAHVMEEELDHVGRALSRFAFMPKELNKLKIPITYIFSSKDEIIPKSEKSFLLDNIANLTFYEFDDVHGSPNHLPLIQKIIPLSILKHSNSKRYFVRIMLAFLLTYNKWKGRDGKR | not soluble |
| MGSDKIHHHHHHMIDKLEFFIALARAQHFGRAAEECGISQPTLSAAIRQLEDQLGVILVQRGSRFQGLTPEGQRVLEWARRIVGDARTMREEMRAARNGLAGHIRLAVIPTALAMVQRLTEPFQAHHPAVTFQVVSRNSLQVLSLLENLEIDAGITYLDNEPLGRVTSVPLYAERYHLIAATGTPLADRESVTWREVSDLRLCLLTADMQNRRIINQHFTEAGVVPRPTLESNSMIVLFSHIRTGQWSSIMPRNVAESFGFPEEIRMVPIVEPQAQHLVGLVATHREPYTPLVSALLHEARRLAAAQVFDRFFLSRNNTAVLT | not soluble |
| MGSDKIHHHHHHMIDLDFRKLTIEECLKLSEEEREKLPQLSLETIKRLDPHVKAFISVRENVSVEKKGKFWGIPVAIKDNILTLGMRTTCASRILENYESVFDATVVKKMKEAGFVVVGKANLDEFAMGSSTERSAFFPTRNPWDLERVPGGSSGGSAAAVSAGMVVAALGSDTGGSVRQPASLCGVVGYKPTYGLVSRYGLVAFASSLDQIGPITKTVRDAAILMEIISGRDENDATTVNRKVDFLSEIEEGVSGMKFAVPEEIYEHDIEEGVSERFEEALKLLERLGAKVERVKIPHIKYSVATYYVIAPAEASSNLARFDGVKYGLRIKEKGLREMYMKTRNVGFGEEVRRRIMIGTFTLSAAYYEAYFNKAMKVRRKISDELNEVLSQYDAILTPTSPVTAFKIGEIKDPLTYYLMDIFTIPANLAGLPAISVPFGFSNNLPVGVQVIGRRFADGKVFRIARAIEKNSPYNENGMFPLPEVKA | not soluble |
| MGSDKIHHHHHHMIDLKRNSKKIPIEATGLRSRKSSLYEPNQKEDFKISRGRFSNFLTCQRCFYLDRVRGLDPPGTPGWTLNETTDLLLKKEFDYCRQKQIPHRIFASNGLSHVVPFDHPEIDNWRNSLNRGLMHRYKDTGIILTGGVDDIWQDTITEQLIIVDYKSQAKNGRVDKKDYLDDPFHEAYKIQMDFYAYLLSGMGFSVHPTSYFLVCNAKRDEDEFNKTMRFDEYLVPYKWNNDWIESRLDEMVALMNQLEVPESNHSCKNCAYADQYSKIIFSGNTSQKEITQGTLPLF | not soluble |
